The record followed here is patent US20250295803A1, “5T4 ANTIBODY-DRUG CONJUGATES AND USES THEREOF” (EXELIXIS, INC., priority 2022, published 2025).

Broadly, the EC50 is the concentration needed to bring the measured effect to its halfway point. Usually Kd stands for the equilibrium constant for the complex coming apart. Low readings indicate tighter binding, high ones weaker binding.

B1: mAbA17: 5T4 antibody comprising VH of SEQ ID NO:62 and VL of SEQ ID NO:63 (antibody, V domains shown)
VH: EVQLVESGGGLVQPGGSLRLSCAASGFTFSRYWIHWVRQAPGKGLEWVAAIFPYSGSTLYADSVKGRFTISADTSKNTAYLQMNSLRAEDTAVYYCARSPSRSILPSGLDYWGQGTLVTVSS
VL: DIQMTQSPSSLSASVGDRVTITCRASQSVSSAVAWYQQKPGKAPKLLIYSASSLYSGVPSRFSGSRSGTDFTLTISSLQPEDFATYYCQQGDGSPYTFGQGTKVEIK
modifications: Antibody mAbA17 VH Sequence; Antibody mAbA17 VL Sequence
B2: mAbA4: 5T4 antibody comprising VH of SEQ ID NO:25 and VL of SEQ ID NO:26 (antibody, V domains shown)
VH: EVQLVESGGGLVQPGGSLRLSCAASGFTFSRYYIHWVRQAPGKGLEWVAFISPGGSYTYYADSVKGRFTISADTSKNTAYLQMNSLRAEDTAVYYCAREYYSMGVLDYWGQGTLVTVSS
VL: B1 VL with G91A, D92Y, G93E
modifications: Antibody mAbA4 VH Sequence; Antibody mAbA4 VL Sequence
B3: mAbA15: 5T4 antibody comprising VH of SEQ ID NO:44 and VL of SEQ ID NO:45 (antibody, V domains shown)
VH: EVQLVESGGGLVQPGGSLRLSCAASGFTFSSYYIHWVRQAPGKGLEWVAYITSTGSYTEYADSVKGRFTISADTSKNTAYLQMNSLRAEDTAVYYCARYDRSTRYSGLDYWGQGTLVTVSS
VL: B1 VL with G91A, D92Y, G93A, S94T, Y96V
modifications: Antibody mAbA15 VH Sequence; Antibody mAbA15 VL Sequence
B4: mAbA17 (antibody, V domains shown)
VH: B1 VH
VL: DIQMTQSPSSLSASVGDRVTITCRASQSVSSAVAWYQQKPGKAPKLLIYSASSLYSGVPSRFSGSRSGTDFTLTISSLQPEDFATYYCQQGDGSPYTFGQGTKVEIKR
notes: also called Antibody mAbA17
B5: mAbA4 (antibody, V domains shown)
VH: B2 VH
VL: B4 VL with G91A, D92Y, G93E
notes: also called Antibody mAbA4
B6: mAbA15 (antibody, V domains shown)
VH: B3 VH
VL: B4 VL with G91A, D92Y, G93A, S94T, Y96V
notes: also called Antibody mAbA15

Residue numbers refer to the chain shown, from its start.

For one experiment, the target named is T1, HEK293 and CHO cells transfected to express human 5T4 (Homo sapiens, UniProt Q13641).
T1 construct: expressed in transfected cells; host or cells: HEK293 and CHO
T1 sequence (Q13641 32-420): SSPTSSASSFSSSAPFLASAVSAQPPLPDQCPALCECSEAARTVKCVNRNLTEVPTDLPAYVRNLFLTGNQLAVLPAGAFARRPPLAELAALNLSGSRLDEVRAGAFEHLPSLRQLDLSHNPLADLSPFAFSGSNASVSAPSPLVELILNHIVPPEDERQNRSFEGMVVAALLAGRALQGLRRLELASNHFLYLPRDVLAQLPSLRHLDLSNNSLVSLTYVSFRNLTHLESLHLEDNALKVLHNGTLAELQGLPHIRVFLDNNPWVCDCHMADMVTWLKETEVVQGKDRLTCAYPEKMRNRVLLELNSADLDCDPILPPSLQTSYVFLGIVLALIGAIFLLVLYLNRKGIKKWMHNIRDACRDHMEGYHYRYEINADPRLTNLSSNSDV
Kind of experiment: Cell binding to transfected HEK293 and CHO cells, human 5T4. It is filed as cell-based. The method, then: (§1) Unconjugated antibodies were tested for their ability to bind to HEK293 and CHO cells transfected to express human, cyno, rat, or mouse 5T4.
As for B1, the “reactivity to cells transfected to express human 5T4” value is given as “reactive”.
Regarding B2, the “reactivity to cells transfected to express human 5T4” value is “reactive”.
Same read-out and setting: then B3, with “reactive”.

The next experiment addresses T2, HEK293 and CHO cells transfected to express rat 5T4 (Rattus norvegicus, UniProt Q5PQV5).
T2 construct: expressed in transfected cells; host or cells: HEK293 and CHO
T2 sequence (Q5PQV5 32-426): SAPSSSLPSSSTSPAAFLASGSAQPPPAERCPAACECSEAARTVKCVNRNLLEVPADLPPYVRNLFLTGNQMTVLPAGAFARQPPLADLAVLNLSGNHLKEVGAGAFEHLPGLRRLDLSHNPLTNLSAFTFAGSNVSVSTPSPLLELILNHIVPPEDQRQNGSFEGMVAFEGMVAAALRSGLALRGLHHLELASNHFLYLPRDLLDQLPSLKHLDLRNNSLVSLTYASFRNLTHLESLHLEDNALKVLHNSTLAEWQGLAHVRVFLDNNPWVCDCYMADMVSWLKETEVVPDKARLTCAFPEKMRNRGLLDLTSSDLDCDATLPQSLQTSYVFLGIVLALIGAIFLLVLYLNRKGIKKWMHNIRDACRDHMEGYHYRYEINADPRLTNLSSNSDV
Kind of experiment: Cell binding to transfected HEK293 and CHO cells, rat 5T4. Format: cell-based. The method, then: as §1
Turning to B1, the “reactivity to cells transfected to express rat 5T4” value (shortened to “reactivity … to express rat 5T4”) is “not to cells transfected to express rat or mouse 5T4”.
Turning to B2, the “reactivity … to express rat 5T4” value is “not to cells transfected to express rat or mouse 5T4”.
For B3, the “reactivity … to express rat 5T4” value is “not to cells transfected to express rat or mouse 5T4”.

The next experiment concerns the target T3, unconjugated human TPBG/5T4 protein with a c-terminal polyhistidine and Avi tag (AcroBiosystems Cat. No. … (human, UniProt Q13641 32-355)).
T3 construct: Bought protein; also called Acro TPGH52E5; Acro Catalog No. TPGH52E; not shown: C-terminal polyhistidine and Avi tag
T3 sequence: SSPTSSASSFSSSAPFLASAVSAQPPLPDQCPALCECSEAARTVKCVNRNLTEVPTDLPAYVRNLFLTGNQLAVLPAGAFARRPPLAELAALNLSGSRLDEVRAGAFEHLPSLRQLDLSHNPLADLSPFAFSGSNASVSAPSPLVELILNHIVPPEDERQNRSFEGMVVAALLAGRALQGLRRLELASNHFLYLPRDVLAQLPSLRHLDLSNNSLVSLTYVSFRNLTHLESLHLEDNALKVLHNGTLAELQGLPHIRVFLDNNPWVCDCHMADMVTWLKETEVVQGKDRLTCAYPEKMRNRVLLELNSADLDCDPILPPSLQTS
The experiment in a line: ELISA on coated human 5T4 His-Avi (Acro TPG-H52E5); antibody condition: pH 8.5 Day 0. The method, then:
(§2) A. Normal Binding Unconjugated antibodies were tested for their ability to bind to human 5T4 (hu5T4) using ELISA. On Day 1, unconjugated human TPBG/5T4 protein with a c-terminal polyhistidine and Avi (AVITAG™) tag (AcroBiosystems (Newark, DE, USA), Cat. No. TPG-H52E5) was diluted 2 μg/mL in PBS, mixed thoroughly, plated 100 μL per well in a 96-well plate (Nunc MAXISORP®) and incubated overnight at 4° C.
On the technique in general: An ELISA detects its analyte on a solid surface through an enzyme-linked reagent.
B4: a half-maximal effect (EC50) was put at 0.153 nM.
B5 came in with an EC50 of 0.12 nM.
The molecule B6 gave an EC50 of 0.134 nM.

The next experiment deals with T3, unconjugated human TPBG/5T4 protein …. The experiment in a line: ELISA on coated human 5T4 His-Avi (Acro TPG-H52E5); antibody condition: pH 5.5 Day 4. How it is done: as §2
Turning to B4, the EC50 amounted to 0.157 nM.
Take B5: the midpoint of the response, the EC50, lay at 0.125 nM.
With B6, the EC50 came out at 0.123 nM.

The target is the same in a further experiment. The experiment in a line: ELISA on coated human 5T4 His-Avi (Acro TPG-H52E5); antibody condition: PBS time 24 hr. How it is done:
as §2
(§3) 3. Oxidative Stress. Several unconjugated antibodies were tested for their ability to bind to 5T4 using ELISA in an oxidative environment. Solutions of 1 mg/mL to 10 mg/mL of antibody in 20 mM citrate/50 mM NaCl at a pH of 5.5 were prepared and stored at 37° C. for 1 to 2 weeks.
As to B4, the EC50 was 0.186 nM.
Molecule B5 had an EC50 of 0.2 nM.
B6 yielded an EC50 of 0.212 nM.

A further experiment has the same target. Kind of experiment: ELISA on coated human 5T4 His-Avi (Acro TPG-H52E5); antibody condition: PBS + H2O2 time 0. The method, then:
as §2, §3
Take B4: the concentration for a half-maximal effect (EC50) is 0.188 nM.
Still for that read-out and setting: then B5, with 0.225 nM.
On the same count and under the same terms, with B6 the figure was 0.191 nM.

Another experiment shares this target. The experiment in a line: ELISA on coated human 5T4 His-Avi (Acro TPG-H52E5); antibody condition: PBS + H2O2 time 24 hr. The method, then: as §2
3. Oxidative Stress. Several unconjugated antibodies were tested for their ability to bind to 5T4 using ELISA in an oxidative environment. […]
As to B4, the EC50 was 0.183 nM.
As to B5, the concentration for a half-maximal effect (EC50) is 0.393 nM.
On the same count and under the same terms, then B6, with 0.19 nM.

Another experiment shares this target. Kind of experiment: Octet, antibody on AHC sensors, human 5T4 in solution (monovalent); Acro TPGH52E5 Lot B465-87AF1-K2. How it is done: Monovalent binding assays were employed to determine the relative affinity of each 5T4 binder obtained by the phage display in Example 1 to human 5T4. Human 5T4 was purchased from Acro Biosystems (Acro Catalog No. TPGH52E) and also produced separately. The monovalent interaction of binders to human 5T4 was monitored using an Octet (Pall ForteBio) instrument. For these assays, 36 nM antibody was immobilized on anti-human Fc (AHC) sensors in 1× kinetic buffer (ForteBio). The sensors were then dipped in wells containing a 3× serial dilution of human 5T4 ranging from 1 μM to 1.37 nM. The association was allowed to reach equilibrium. Sensors were then moved to wells containing only 1× kinetic buffer and allowed to dissociate to equilibrium. Association and dissociation rates were measured and from these, monovalent KDS were calculated using the onboard analysis software (ForteBio).
Background: BLI is a label-free optical method that tracks binding on a fibre tip over time.
B4 registered a Kd of 2.81 nM.
Consider B5, for which the equilibrium dissociation constant (Kd) turned out to be 0.01 nM.
Same read-out and setting: with B6 the figure was 3.62 nM.
